Reference: patent publication US10913773B2, “Bicyclic peptidyl inhibitor of tumor necrosis factor-alpha” (Ohio State Innovation Foundation, priority 2016, dated 2021)
Positions of bridges follow the written chain, without caps; N, C: chain ends. Non-standard residues stand in square brackets, D forms with d. Primed or numbered codes have the meaning given here. No end group written: not given here. *: point of attachment. FITC = O=C1OC2(c3ccc(O)cc3Oc3cc(O)ccc32)c2ccc(NC(=S)*)cc21; trimesoyl″ = benzene-1,3,5-tricarbonyl scaffold; FITC′ = fluorescein isothiocyanate, on Lys NZ; Phe(3,4-F2) = N[C@@H](Cc1ccc(F)c(F)c1)C(=O)O; Phe(4-Cl) = N[C@@H](Cc1ccc(Cl)cc1)C(=O)O; Phe(4-F) = N[C@@H](Cc1ccc(F)cc1)C(=O)O; 2Nal = N[C@@H](Cc1ccc2ccccc2c1)C(=O)O; Phg = N[C@H](C(=O)O)c1ccccc1; Nle = CCCC[C@H](N)C(=O)O; Orn = NCCC[C@H](N)C(=O)O; Abu = CC[C@H](N)C(=O)O; Dap = NC[C@H](N)C(=O)O

B1: C1-15 (peptide)
peptide: VY[dN]KY[dF]G[dK]H[Dap]K(FITC′)-NH2
modifications: linker (positions not given here) via trimesoyl″; not fully specified (N-terminus, bridges)
B2: C1-13 (peptide)
peptide: VY[dS]KY[dF]G[dK]H[Dap]K(FITC′)-NH2
modifications: linker (positions not given here) via trimesoyl″; not fully specified (N-terminus, bridges)
B3: C1-17 (peptide)
peptide: FY[dN]KY[dF]G[dK]H[Dap]K(FITC′)-NH2
modifications: linker (positions not given here) via trimesoyl″; not fully specified (N-terminus, bridges)
B4: C1-16 (peptide)
peptide: LY[dN]KY[dF]G[dK]H[Dap]K(FITC′)-NH2
modifications: linker (positions not given here) via trimesoyl″; not fully specified (N-terminus, bridges)
B5: C1-2 (peptide)
peptide: AY[dA]KY[dF]G[dK]H[Dap]K(FITC′)-NH2
modifications: linker (positions not given here) via trimesoyl″; not fully specified (N-terminus, bridges)
B6: C1-14 (peptide)
peptide: VY[dT]KY[dF]G[dK]H[Dap]K(FITC′)-NH2
modifications: linker (positions not given here) via trimesoyl″; not fully specified (N-terminus, bridges)
B7: C1-21 (peptide)
peptide: [Nle]Y[dS][Dap]Y[dF]G[dK]H[Dap]K(FITC′)-NH2
modifications: linker (positions not given here) via trimesoyl″; not fully specified (N-terminus, bridges)
B8: Anticachexin C1, Lys(FITC)-labelled (Table 2) (peptide)
peptide: [Phg]Y[dA]KY[dF]G[dK]H[Dap]K(FITC′)-NH2
modifications: linker (positions not given here) via trimesoyl″; not fully specified (N-terminus, bridges)
B9: C1-12 (peptide)
peptide: [Nle]Y[dN]KY[dF]G[dK]H[Dap]K(FITC′)-NH2
modifications: linker (positions not given here) via trimesoyl″; not fully specified (N-terminus, bridges)
B10: C1-19 (peptide)
peptide: [Nle]YSKY[dF]G[dK]H[Dap]K(FITC′)-NH2
modifications: linker (positions not given here) via trimesoyl″; not fully specified (N-terminus, bridges)
notes: L-Ser at position 3
B11: C1-20 (peptide)
peptide: [Nle]Y[dS][Orn]Y[dF]G[dK]H[Dap]K(FITC′)-NH2
modifications: linker (positions not given here) via trimesoyl″; not fully specified (N-terminus, bridges)
B12: Asn-Asn-Asn-Lys(FITC)-labeled anticachexin C1 (peptide)
peptide: [Phg]Y[dA]KY[dF]G[dK]H[Dap]NNNK(FITC′)-NH2
modifications: bridge (positions not given here) via trimesoyl″; not fully specified (N-terminus, bridges); also: feature: K4 labeled with FITC
notes: also called C1-NNNK(FITC); NNNK-tagged anticachexin C1
B13: C1-10 (peptide)
peptide: RY[dA]KY[dF]G[dK]H[Dap]K(FITC′)-NH2
modifications: bridge (positions not given here) via trimesoyl″; not fully specified (N-terminus, bridges)
B14: C1-23 (peptide)
peptide: [Nle][Phe(4-F)][dS]KY[dF]G[dK]H[Dap]K(FITC′)-NH2
modifications: bridge (positions not given here) via trimesoyl″; not fully specified (N-terminus, bridges)
B15: C1-22 (peptide)
peptide: [Nle]F[dS]KY[dF]G[dK]H[Dap]K(FITC′)-NH2
modifications: linker (positions not given here) via trimesoyl″; not fully specified (N-terminus, bridges)

What follows are binders tested against T1, Recombinant TNFα containing an N-terminal 13-aa ybbR tag (human, UniProt P01375 77-233, biotin at the ybbR tag in the ELISA assays) (assay: FA, FITC-peptide + TNFα titration).
T1 construct: Expressed in E. coli; Same construct used unlabelled (FA) and biotinylated on NeutrAvidin (ELISA); also called tumor necrosis factor-alpha; human TNFα; not shown: N-terminal 13-aa ybbR tag
Experimental: (§1) The FA values were measured on a Molecular Devices Spectramax M5 spectrofluorimeter, with excitation and emission wavelengths at 485 and 525 nm, respectively. Equilibrium dissociation constants (KD) were determined by plotting the FA values as a function of TNFα concentration and fitting the data to the following equation $$Y = \frac{\left(Amin + \left(Amax \times \frac{Q_b}{Q_f} - Amin\right)\left(\frac{(L+x+K_d) - \sqrt{((L+x+K_d)^2 - 4Lx)}}{2L}\right)\right)}{\left(1 + \left(\frac{Q_b}{Q_f} - 1\right)\left(\frac{(L+x+K_d) - \sqrt{((L+x+K_d)^2 - 4Lx)}}{2L}\right)\right)}$$
(§2) where Y is the measured anisotropy at a given TNFα concentration x; L is the bicyclic peptide concentration; Qb/Qf is the correction fact for dye-protein interaction; Amax is the maximum anisotropy when all the peptides are bound to TNFα, while $Amin$ is the minimum anisotropy. […] The FA values were plotted against the competitor peptide concentration to determine the IC$50$ values.

T1 sequence (P01375 77-233): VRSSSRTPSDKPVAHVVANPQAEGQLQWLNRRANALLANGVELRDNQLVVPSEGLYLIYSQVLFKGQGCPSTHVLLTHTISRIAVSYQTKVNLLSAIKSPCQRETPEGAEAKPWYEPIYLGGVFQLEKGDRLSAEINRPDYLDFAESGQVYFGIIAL

| Binder | Kd [nM] |
| --- | --- |
| VY[dA]KY[dF]G[dK]H[Dap]K(FITC)-NH2 (linker (positions not given here) via trimesoyl″; not fully specified (bridges)) [C1-4] | 1700 |
| B1 | 3200 |
| B2 | 2400 |
| B3 | 2200 |
| B4 | 2700 |
| B5 | 1800 |
| B6 | 2900 |
| B7 | 5900 |
| B8 | 1400 |
| [Abu]Y[dA]KY[dF]G[dK]H[Dap]K(FITC)-NH2 (linker N-4-10 via trimesoyl″) [C1-3] | 2000 |
| B9 | 1400 |
| B10 | 6800 |
| B11 | 3500 |
| B12 | 800 |

These binders were tested against T1, Recombinant TNFα containing an … (assay: FA).
Experimental: as §1, §2

| Binder | fold decrease in TNFα binding against C1 (Phg at position-1) [fold] | fold reduction in affinity against C1-35 [fold] |
| --- | --- | --- |
| B13 | ≥ 5 | – |
| [Nle]Y[dS]KW[dH]G[dK]H[Dap]RK(FITC)-NH2 (linker N-4-10 via trimesoyl″, C1-35 core with R11 as printed) [C1-53] | – | > 40 |

Target: T1, Recombinant TNFα containing an …
Assay: FA, FITC-peptide + TNFα titration
Remark: another data set of the same source
Experimental: as §1, §2

| Binder | Kd [nM] |
| --- | --- |
| B14 | 1200 |
| [Nle][Phe(4-Cl)][dS]KY[dH]G[dK]H[Dap]K(FITC)-NH2 (linker N-4-10 via trimesoyl″) [C1-40] | 4100 |
| [Nle][Phe(4-F)][dS]KY[dQ]G[dK]H[Dap]K(FITC)-NH2 (linker N-4-10 via trimesoyl″) [C1-37] | 1300 |
| [Nle][Phe(4-F)][dS]KY[dH]G[dK]H[Dap]K(FITC)-NH2 (linker (positions not given here) via trimesoyl″; not fully specified (bridges)) [C1-39] | 1700 |
| [Nle][Phe(4-Cl)][dS]KY[dF]G[dK]H[Dap]K(FITC)-NH2 (linker N-4-10 via trimesoyl″) [C1-24] | 4800 |
| [Nle][Phe(3,4-F2)][dS]KY[dF]G[dK]H[Dap]K(FITC)-NH2 (linker N-4-10 via trimesoyl″) [C1-25] | 5400 |
| [Nle]Y[dS]K[Phe(4-Cl)][dH]G[dK]H[Dap]K(FITC)-NH2 (linker N-4-10 via trimesoyl″) [C1-34] | 1600 |
| [Nle]L[dS]KY[dF]G[dK]H[Dap]K(FITC)-NH2 (linker N-4-10 via trimesoyl″) [C1-27] | 3700 |
| [Nle]W[dS]KY[dH]G[dK]H[Dap]K(FITC)-NH2 (linker N-4-10 via trimesoyl″) [C1-41] | 430 |
| [Nle]Y[dS]KY[dY]G[dK]H[Dap]K(FITC)-NH2 (linker N-4-10 via trimesoyl″) [C1-29] | 2000 |
| [Nle]H[dS]KY[dF]G[dK]H[Dap]K(FITC)-NH2 (linker N-4-10 via trimesoyl″) [C1-26] | 2100 |
| [Nle]Q[dS]KY[dF]G[dK]H[Dap]K(FITC)-NH2 (linker N-4-10 via trimesoyl″) [C1-28] | 4300 |
| [Nle]Y[dS]KY[dL]G[dK]H[Dap]K(FITC)-NH2 (linker N-4-10 via trimesoyl″) [C1-31] | 2500 |
| [Nle]Y[dS]KY[dQ]G[dK]H[Dap]K(FITC)-NH2 (linker N-4-10 via trimesoyl″) [C1-32] | 1300 |
| B15 | 1700 |
| [Nle]Y[dS]K[2Nal][dH]G[dK]H[Dap]K(FITC)-NH2 (linker N-4-10 via trimesoyl″) [C1-36] | 1300 |
| [Nle]Y[dS]K[Phe(4-F)][dH]G[dK]H[Dap]K(FITC)-NH2 (linker N-4-10 via trimesoyl″) [C1-33] | 760 |
